The record followed here is the DeepSol protein solubility set.

The data set is described as follows: soluble on expression in E. coli; label from the status in PepcDB or PDB records.
Turning to “MSEFEGWIKWLEPVFLLWKPEDPGYERPAYRDWTKEEDEPKYSPEKELALLDKQILASDGFDIDFTHFRCVFNYHLAYLDSHEFVDEPETTRDLLERLSRKALDDYNQESVVKANFHFCCAIMFLITFEVVDPYDNLIKLFQTRVRHAEDIVTEYVFCRPKPNQGVECIGVKNNDGKDVQTNVKEQEIPCMYGWFLRVITITFTLQIGVGASICHKE”, the “soluble on expression in E. coli” value was “soluble”.

Turning to “MSEGSKQNKKSTDAFSKYMRKLFGIQEITESQREYIEKLERELESAKGTLSTREEKEMIRGLVKFGNIMVKQIMCPRMDMAAVDIALNYEQLQEYISTCGFSRIPVYKESADKIEGVLNIKDLFPFYNKEKDFNWQQLIRTVEFIPETKLIEELLREFQLKHLHMAIVVDEYGGTAGLITMEDVIEEIVGDIHDEYDDDEKPYAQLSDTSYLFEGKISLVDFYKAIELDKDIFDEVKGESETLGGLLLNINSDLPRLGDEIIYEGYVFKIDAVNSKRILRVKVTVPENSENEK”, the “soluble on expression in E. coli” value is listed as “soluble”.

Consider “MSEIKQLPTRDEVPTPLTWDLTKIFKDDAAFDVAYNQLIEELNQAESFKGTLGDGAEAFLAALEYVLDVYRKVETLYVYSHLKNDQDTTNTAYQALYARASSLYAQVSEAVSWFDPEVLTLSDEQIWGYFEEQPKLAVYRHYIQNILDERPHVLSMEQEALLAGASEIFGASSNTFSILNNADLEFPTVQNAEGETIQLSHGVYGQLMESVDPSVREAAFKGLYKVYKQFRNTLASTLGAHVKTHNYKAKIRNYDSARAASLASNHIPESVHETLVAVVNKHLPLLHRYVKLRKKLLNVEELHMYDLYAPLLGEAPIRYSYEEAKEKAIEALKPLGEDYLSIVKEAFSSRWIDVIENQGKRSGAYSSGAYDTAPYILMNWHDSLDQLFTLVHEMGHSVHSYYTRNNQPYVYGDYSIFLAEIASTTNENILTEYLLQTETDPKVRAYVLNHYLDGFKGTIFRQTQFAEFEHFIHTEDAKGTPLTSEYLSEYYGELNAKYYGPEVVRDEEISYEWARIPHFYYNYYVYQYATGFSAASALSKHILAGEEGALENYLNYLKAGSSDFPIEVMKKAGVDMTQAAYIEDAMKVFEERLTELEALVEKL”, for which the “soluble on expression in E. coli” value is given as “not soluble”.

In the case of “MSEILVLNCGSSSVKFALINPHTSQSLVTGLAENIATKNCKVVFKAEHKIVKYLENGSYKDVFEMLKDFLVENKHLEKIVAIGHRVVHGGQYFSKSVLINADSLEKIKACIALAPLHNPAHIEGIRFCQQIFPELPQVAVFDTAFHQTMPSYIAEYAIPYELTHKHNIRKYGAHGTSHKYVSEQAAKILTQQKANVIVAHLGNGCSITAVVDGKSIDTSMGLTPLDGLVMGTRSGCIDPSIFAYISDNLGWSVTEITNMLNKQSGLLGICGHNDMREVSQLAAKGDSLAKLAIEIFSHRVAKFVASYMIYFNKLDALVFTGGIGENAANIRKNIISKLANLGFMIDHQKNSNSETFINSKNSHNIMVIATNEELMIAQETQNLI”, the “soluble on expression in E. coli” value was “soluble”.

On to “MSEKLDLTRFEKKMVIRNIEEKDIDKIIDLQKDCFPGMEPWKREHLISHLEHFPEGQFCAEFEGEIIGSCSSLLINFDEYDDRHTWQDITDDGYITNHNPDGLNMYGIEVMVHPKYRRMKIGHRLYEARKDLARRLSLKSIIIGGRIPNYHKYAEEMTAREYVEQVTRHQIYDPVLSFQLMNGFTLMRINPNYLPDDTASIKY”, for which the “soluble on expression in E. coli” value is “not soluble”.

Turning to “MSEKLVLSSGKCFLHEVLCRREEKEYRQNRANLRRGADTTTEVYAFPYVYPQLPQEATTQERLVLMRVAALAAEFGNIPAVGSDTPAKSLGRWAYEVSRQRMLDRQQQVAFNPKKLDVVGERLAYLHTQDFEEAVRAVSRLMSIASSLSNVPAFDYIALYSLFSYWGNGISEKSQRVRMRVLQDYYGSFGSLIE”, the “soluble on expression in E. coli” value is “not soluble”.

In the case of “MSELDQLRQEAEQLKSQIREARKSANDTTLATVASNLEPIGRIQMRTRRTLRGHLAKIYAMHWASDSRNLVSASQDGKLIVWDSYTTNKVHAIPLRSSWVMTCAYAPSGSFVACGGLDNICSIYSLKTREGNVRVSRELPGHTGYLSCCRFLDDNQIVTSSGDMTCALWDIETGQQCTAFTGHTGDVMSLSLSPDFRTFISGACDASAKLWDIRDGMCKQTFPGHESDINAVAFFPSGNAFATGSDDATCRLFDIRADQELAMYSHDNIICGITSVAFSKSGRLLFAGYDDFNCNVWDSMRQERAGVLAGHDNRVSCLGVTEDGMAVCTGSWDSFLKIWN”, the “soluble on expression in E. coli” value is “soluble”.

In the case of “MSELSFAQLLEESFAATPRLGDVVKGTVVAIQKGYVIVDTGFKSESSIPAEEFINAQGELEVQIGDQVDVVLKAVEDGFGETVVSRGDAKRNEAWIALEKAFEEQATVIGFVNGKVKGGFTVELNGVRAFLPGSLVDTRPVRDSLNLEGKELEFKVIKLDQKRNNVVVSRRAVIESENSQDRDEVLANLVEGSVITGTVKNLTDYGAFVDLGGVDGLLHITDMAWKRVKHPSEVVAVGQEVTVKVLKFDKEKTRVSLGLKQLGQDPWAAIAHNHPVNSKLTGKVTNLTDYGCFVEILDGVEGLVHVSEMDWTNKNIHPSKVVSVGDVVEVMVLEVDEERRRISLGLKQCKANPWEHFAATHNKNDKVTGKIKSITDFGIFIGLEGGIDGLVHLSDISWNVTGEEAVRNYKKGDEVEAVVLQVDAAKERISLGIKQLESDPFTNFVDSTKKGAILTGKVVDVDTKGVKVELEGGVEAFIRANEATRERVEDITTVISVGDSIEAKYTGIDRKSRLVNLSVRAKDEAEESAALAQVNKQDVEMPNAMTAAFQAAKGELEHHHHHH”, the “soluble on expression in E. coli” value was “soluble”.

Consider “MSELTKAQQYNFNKLQKKIRRNTGNAIADYNMIEDGDRIMVCLSGGKDSFTMLDILMSLKKSAPISFDLIAVNLDQKQPGFPAHILPEYLEKLGVEYKIVEEDTYSIVQDKIPEGKTTCSLCSRLRRGILYRTAKELGATKIALGHHRDDILETMFLNMFYGGKLKGMPPKLVSDNGEHVVIRPLAYCREKDIIKYADMRDYPIIPCNLCGSQPNMQRQNVKQMLNTWDKQFPGRIETMFTAMQNVVPSHLADFNTFDFKSINRDSGVINGGDIGFDKEEMPTLPVDADDAVAEFDPSLKLDVVNVD”, for which the “soluble on expression in E. coli” value is recorded as “not soluble”.

In the case of “MSELWYTEKQTKNFGITMKVNKTLHTEQTEFQHLEMVETEEFGNMLFLDGMVMTSEKDEFVYHEMVAHVPLFTHPNPEHVLVVGGGDGGVIREILKHPSVKKATLVDIDGKVIEYSKKFLPSIAGKLDDPRVDVQVDDGFMHIAKSENQYDVIMVDSTEPVGPAVNLFTKGFYAGIAKALKEDGIFVAQTDNPWFTPELITNVQRDVKEIFPITKLYTANIPTYPSGLWTFTIGSKKYDPLAVEDSRFFDIETKYYTKDIHKAAFVLPKFVSDLIKLEHHHHHH”, the “soluble on expression in E. coli” value is on record as “soluble”.

For the sequence “MSEMQMDCALDLMRRLPPQQIEKNLIDLIDLAPDLCEDLLSSVDQPLKIAKDKEHGKDYLLCDYNRDGDSYRSPWSNSYYPPLEDGQMPSERLRKLEIEANYAFDQYREMYYEGGVSSVYLWDLDHGFAAVILIKKAGDGSKMIRGCWDSIHVVEVQEKTTGRTAHYKLTSTAMLWLQTNKQGSGTMNLGGSLTRQQEQDANVSESSPHIANIGKMVEEMENKIRNTLNEIYFGKTKDIVNGLRSTQSLADQRQQAAMKQDLAAAILRRNVKPESN”, the “soluble on expression in E. coli” value was “not soluble”.

In the case of “MSEPIDILIAGAGIGGLSCALALHQAGIGKVTLLESSSEIRPLGVGINIQPAAVEALAELGLGPALAATAIPTHELRYIDQSGATVWSEPRGVEAGNAYPQYSIHRGELQMILLAAVRERLGQQAVRTGLGVERIEERDGRVLIGARDGHGKPQALGADVLVGADGIHSAVRAHLHPDQRPLSHGGITMWRGVTEFDRFLDGKTMIVANDEHWSRLVAYPISARHAAEGKSLVNWVCMVPSAAVGQLDNEADWNRDGRLEDVLPFFADWDLGWFDIRDLLTRNQLILQYPMVDRDPLPHWGRGRITLLGDAAHLMYPMGANGASQAILDGIELAAALARNADVAAALREYEEARRPTANKIILANREREKEEWAAASRPKTEKSAALEAITGSYRNQVERPRLEHHHHHH”, the “soluble on expression in E. coli” value was “soluble”.

Turning to “MSEPIPPFRYAPIVCSEQSTIVAEFVPEASGVREAGYQSEAELEAAFITQLQGQAYEYLSITSEAALLANLRRQLEKLNKVTLSDAEWEGFFSTCIAGAHDGIVQKTARIQEDHVQVLKRDDGTIKNMCLLDKGNIHNNILQVMNQYAVEGARGNRYDVTVLVNGLPMVHVELKRRGVDIREAFNQINRYQRDSFWAGSGLFDYVQLFVISNGTLTKYYSNTVRAGHVEEQSNKRSKSKTSNSFSFAIWWADAKNQPITELTSFTKTFFAKHSLLNVLTKYCVFNANRKLLVMRPYQIVAAERILQRIVTATHQQQLGTVAAGGYIWHTTGSGKTLTSFKVAQLACGLGVIDKVLFVVDRKDLDYQTMREYESFEKGAANSNTSTAVLQRQLEDSDVRIIITTIQKLSRFVAKHKQHPVYGAHVAVIFDECHRSQFGDMHTEITRAFQRYHLFGFTGTPIFAENAGSTQNPMRRTTQQTFGDTLHTYTIVDAINDKTVLPFRIDYINTIKSQPNINDKQVAAIDTERALLAPERIRQIVSYIREHFDQKTKRASIYRHEGQRLQGFNALLATASIDAAKRYYAELMAQQKDLPEAQRLKVGLIYSVAANEGDGDELLAEEEFETERLDQDARNFLEAAIQDYNALFGTSFDTSADKFQNYYKDVSERLKKRKLDILIVVNMFLTGFDATTLNTLWVDKRLKAHGLIQAYSRTNRILNSVKSYGNIVSFRNLEQETNEALALFGNKDAKGIVLLRPYAEYYKEYEERVGELVAAFPLGKVIVGEAAQKAFITLFGSILRLKNILTAFDDFAGQEVLTEREFQDYQSLYLNLYAEFRSASAAEKESINDDVVFEIELIKQVEINVDFILLLVEQYVKKKGTGEDKDIRATIERAIHSSPSLRNKKELIEQFVDAVSMKATVDAQWQAFVAVKQSQELEGIIAEENLNAEATREFIANAFRDGSIPATGTAITKILPPVSRFSKNNGHAAKKQTVLDKLATFFERYFGLV”, the “soluble on expression in E. coli” value was “soluble”.

“MSERMWGFGLTEEEASRSIREKMSINDSPTHGHDIHVTRDLVKHHLSKSDMLTDPSQEVLEERTRIQFIRWSHTRIFQVPSEVMDDVMQERIDQVRRSVSHLMCDSYNDPSFRTSCSEC”: the “soluble on expression in E. coli” value is on record as “not soluble”.

“MSESQLRKGAVELIVLGLLSSRPSYGGQLVERFREEAGLEISTGTLYPLLARLRKSGLVVTAWEESPVGPPRKIYKLAKPGKNRLLQMRREWEALDCAVKRTTQKGIR”: the “soluble on expression in E. coli” value is reported as “not soluble”.

Take “MSESSHVGLWNRCLEIIRDNVPESTYKTWFVPIVPLKYEDKTLIVQVPSQFFYEFLEDKFVDLLRKTLYKVIGDGTKLMYNVLVDKSSGATVNQESTTRSTAIPQSGLPRVDERKAPGLLRAPAVQDLDPHLNPNYNFETFIEGYSNKLSRSVAEAVAENPAKTVFNPLFLHGASGVGKTHLANAIGTRIKELYPDKRVLYVSAHLFQVQYTDSVRNNTTNDFINFYQTIDVLIIDDIQEFAGVTKTQNTFFHIFNHLHQNGKQLILTSDRAPVLLQGMEERLLTRFKWGMVAELEKPTVELRKNILRNKIHRDGLQFPSEVIDYIAENVNESVRDLEGIVISIMAHSTIYNKEIDLDLAQRIVRKVVRCETKAVTIDDIINVVCKHFDLESSAIHTKSRKREVVQARQVAMYLAKTHTDFSTSKIGKFIGNKDHATVLHACKTVKGQCEVDKGFRSDLENIETLLKKRNVSNGERLEHHHHHH”: the “soluble on expression in E. coli” value is given as “soluble”.

For the sequence “MSEYPILPSTLIPADPRFGCGPSKVRPAQLNAIVNAGADVIGTSHRQPAVKNIVGSIREGLSSLFSLPDGYEIVLSLGGATAFWDAATFGLIEKKSGHLTFGEFSGKFAKASAQAPWLDEPTIISAEPGDTPTPVAMEGCDVIAWAHNETSTGAMVPVIRPENSDGQLVAIDATSGAGGLPVDMHNADVYYFSPQKCFASDGGLWLAAMSPAALERIEKINASDRFIPAFLNLQTAVDNSRKNQTYNTPAVGTLLMLENQVEWMNANGGLDAMVERTTANSSALYEWAEKRAETTPYVTDPAKRSLVVGTIDFDDSIDAAALAKVLRANGILDVEPYRKLGRNQLRIGMFPAIDTADMDTLTAAIDYVLDNGFAQA”, the “soluble on expression in E. coli” value is “not soluble”.
